“Also recorded” adds a separate entry of the source. One block for each molecule: values may come before it.
Assays:
[1] = test system: HAUSP TRAF-like domain (residues 1–206); experiment: gel filtration binding assay with HAUSP (residues 1–206); conditions: Superdex-200, 25 mM Tris pH 8.0, 100 mM NaCl, 2 mM DTT, 4 °C, SDS-PAGE/Coomassie, protein alone, no competitor
Experimental: (§1) Size-exclusion chromatography (gel filtration), using a Superdex-200 column (10/30, Amersham Pharmacia Biotech, Piscataway, New Jersey, United States), was employed to carry out all the in vitro binding assays. Proteins subjected to binding tests were incubated at 4 °C for at least 45 min to allow equilibrium to be reached. The flow rate was 0.5 ml/min, and the buffer contained 25 mM Tris (pH 8.0), 100 mM NaCl, and 2 mM DTT. All fractions were collected at 0.5 ml each. Aliquots of relevant fractions were mixed with SDS sample buffer and subjected to SDS-polyacrylamide gel electrophoresis. The proteins were visualized by Coomassie Blue staining. The column was calibrated with molecular-mass standards.

[2] = test system: HAUSP TRAF-like domain (residues 1–206); experiment: in vitro competition assay using gel filtration chromatography, MDM2 versus p53; format: binding; conditions: 10-fold molar equivalence of p53 (351–382) preincubated with HAUSP 5 min at 4 °C, then one molar equivalence of MDM2 (208–289) 45 min at 4 °C, SDS-PAGE/Coomassie
[3] = target: T1, HAUSP TRAF-like domain (residues 53–206) (Homo sapiens, UniProt Q93009); experiment: gel filtration binding assay of MDM2 fragments with HAUSP TRAF-like domain; conditions: Superdex-200, HAUSP residues 53–206, 25 mM Tris pH 8.0, 100 mM NaCl, 2 mM DTT, 4 °C
T1 construct: GST (N); made in house; host or cells: Escherichia coli BL21(DE3), vector pGEX-2T
T1 sequence (Q93009 53-206): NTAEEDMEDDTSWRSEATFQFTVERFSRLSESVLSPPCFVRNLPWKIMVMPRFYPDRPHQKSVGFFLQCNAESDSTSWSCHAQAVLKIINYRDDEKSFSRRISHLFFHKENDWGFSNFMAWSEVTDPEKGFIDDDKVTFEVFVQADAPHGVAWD
Experimental: as §1

- complex formation with HAUSP (residues 1–206) [1]: interacts
B1: MDM2 (residues 208–289): MDM2 fragment, residues 208–289 (protein)
chain: ERSSSSESTGTPSNPDLDAGVSEHSGDWLDQDSVSDQFSVEFEVESLDSEDYSLSEEGQELSDEDDEVYQVTVYQAGESDTD
- complex formation with HAUSP in competition [2]: formed a stable complex only with MDM2; also recorded: formed a stable complex with HAUSP

- complex formation with HAUSP TRAF-like domain [3]: formed a stable complex
B2: MDM2 fragment residues 223–289: MDM2 fragment encompassing residues 223–289 (protein)
chain: DLDAGVSEHSGDWLDQDSVSDQFSVEFEVESLDSEDYSLSEEGQELSDEDDEVYQVTVYQAGESDTD

- complex formation with HAUSP TRAF-like domain [3]: formed a stable complex
B3: MDM2 fragment residues 170–232: MDM2 fragment encompassing residues 170–232 (protein)
chain: ENSDELSGERQRKRHKSDSISLSFDESLALCVIREICCERSSSSESTGTPSNPDLDAGVSEHS

— paper PMC1334386 (PLoS Biology, 2006)
